Laboratory results taken from PMC7337898.

Tested on: HrrA (phosphorylated response regulator) (Corynebacterium glutamicum ATCC 13032)
Assay: EMSA
Settings: 20 mM Tris-HCl pH 7.5, 50 mM KCl, 10 mM MgCl2, 5% glycerol, 0.5 mM EDTA, 0.005% Triton X-100, 20 min, room temperature, 10 nM DNA with 5-1000 nM HrrA …

Row | Substance | Kd (apparent Kd) | Kd (apparent Kd (text misprints 270 μM))
1 | PctaE | 125 nM | –
2 | PcydA (Pcyd) | 350 nM | –
3 | PhmuO | 196 nM | –
4 | PsigC/katA | – | 271 nM
